The data set deals with the molecule itself. In words: co-IP; S2R+ cells co-transfected with GFP-fused and HA-tagged HOW(L) variants (or gfp with how(l)^WT-HA); lysis in 1% NP40 buffer (50 mM Tris pH 7.5, 100 mM NaCl); IP with mouse anti-GFP on protein A/G beads 1-2 h at 4°C; Western blot with anti-HOW; co-precipitated HA protein normalised to its crude level and to the precipitated GFP protein.

B1: Held Out Wings, long isoform, phospho-mutant T59A T64A (HOW(L)^TTAA) (natural protein, Drosophila melanogaster, UniProt O01367 1-405, looked up)
chain: MSVCESKAVVQQQLQQHLQQQAAAAVVAVAQQQQAQAQAQAQAQAQQQQQAPQVVVPMAPQHLAPQQQQQSTQSIADYLAQLLKDRKQLAAFPNVFTHVERLLDEEIARVRASLFQINGVKKEPLTLPEPEGSVVTMNEKVYVPVREHPDFNFVGRILGPRGMTAKQLEQETGCKIMVRGKGSMRDKKKEDANRGKPNWEHLSDDLHVLITVEDTENRATVKLAQAVAEVQKLLVPQAEGEDELKKRQLMELAIINGTYRDTTAKSVAVCDEEWRRLVAASDSRLLTSTGLPGLAAQIRAPAAAPLGAPLILNPRMTVPTTAASILSAQAAPTAAFDQTGHGMIFAPYDYANYAALAGNPLLTEYADHSVGAIKQQRRLATNREHPYQRATVGVPAKPAGFIEIQ
notes: Held Out Wings (HOW), isoform HOW(L), Drosophila melanogaster, with T59 and T64 mutated to alanine; Two differently tagged copies met in the co-IP: one fused to GFP (bait, vector pTGW) and one tagged with HA (prey, vector pTWH); also called HOW^TTAA; gfp-how(l)^TTAA; source: S2R+ cells, co-transfected, in lysate
B1: the “co-immunoprecipitated HA protein, normalised, relative to HOW(L)^WT” value was 0.56 ± 0.14.

B2: Held Out Wings, long isoform, dimerization mutant E106G (HOW(L)^EG) (natural protein, Drosophila melanogaster, UniProt O01367 1-405, looked up)
chain: MSVCESKAVVQQQLQQHLQQQAAAAVVAVAQQQQAQAQAQAQAQAQQQQQAPQVVVPMTPQHLTPQQQQQSTQSIADYLAQLLKDRKQLAAFPNVFTHVERLLDEGIARVRASLFQINGVKKEPLTLPEPEGSVVTMNEKVYVPVREHPDFNFVGRILGPRGMTAKQLEQETGCKIMVRGKGSMRDKKKEDANRGKPNWEHLSDDLHVLITVEDTENRATVKLAQAVAEVQKLLVPQAEGEDELKKRQLMELAIINGTYRDTTAKSVAVCDEEWRRLVAASDSRLLTSTGLPGLAAQIRAPAAAPLGAPLILNPRMTVPTTAASILSAQAAPTAAFDQTGHGMIFAPYDYANYAALAGNPLLTEYADHSVGAIKQQRRLATNREHPYQRATVGVPAKPAGFIEIQ
notes: Held Out Wings (HOW), isoform HOW(L), Drosophila melanogaster, with E106 mutated to glycine; Two differently tagged copies met in the co-IP: one fused to GFP (bait, vector pTGW) and one tagged with HA (prey, vector pTWH); also called HOW^EG; gfp-how(l)^EG; source: S2R+ cells, co-transfected, in lysate
On to B2, for which the “co-immunoprecipitated HA protein, normalised, relative to HOW(L)^WT” value was found to be 0.13 ± 0.04.

The record behind these values is paper PMC3315481, “Phosphorylation of the Drosophila melanogaster RNA–Binding Protein HOW by MAPK/ERK Enhances Its Dimerization and Activity” (PLoS Genetics, 2012).
